Assay results: patent publication US20230287363, “DNA POLYMERASE, APTAMER, WARM-START DNA POLYMERASE AND PREPARATION METHODS AND APPLICATION THEREOF” (Sun Yat-Sen University, published 2023)

Molecular target: T1, RHAU23-Bst (DHX36 RHAU23 peptide fused to N-terminus of Bst-LF) (Homo sapiens / Geobacillus …)
T1 chain: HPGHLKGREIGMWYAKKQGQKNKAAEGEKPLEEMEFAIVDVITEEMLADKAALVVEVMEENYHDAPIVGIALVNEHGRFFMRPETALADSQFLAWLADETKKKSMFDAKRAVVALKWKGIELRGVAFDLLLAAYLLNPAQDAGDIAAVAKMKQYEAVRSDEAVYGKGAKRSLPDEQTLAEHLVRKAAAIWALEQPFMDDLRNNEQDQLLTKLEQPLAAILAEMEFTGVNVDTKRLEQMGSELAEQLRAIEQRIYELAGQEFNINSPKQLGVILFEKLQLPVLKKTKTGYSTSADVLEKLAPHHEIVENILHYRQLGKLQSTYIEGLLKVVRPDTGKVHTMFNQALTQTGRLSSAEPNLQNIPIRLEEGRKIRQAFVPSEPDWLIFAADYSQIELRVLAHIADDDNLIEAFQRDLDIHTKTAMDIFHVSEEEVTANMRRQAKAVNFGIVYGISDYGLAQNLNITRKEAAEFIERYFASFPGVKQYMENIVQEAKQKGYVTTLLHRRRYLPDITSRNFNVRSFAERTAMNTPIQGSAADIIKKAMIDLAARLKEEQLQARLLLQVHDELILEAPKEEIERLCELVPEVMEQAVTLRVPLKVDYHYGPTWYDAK
Assay: EMSA; Kd stated only as nM level; K+ buffer, 4 C
Conditions: tags: His-tag, pCold-I, E. coli BL21; label: 5'-FAM (EMSA); bulged G4 with flanking dsDNA
Procedure: Oligonucleotides were purchased from Sangon Biotech Co., Ltd (China). Double-stranded DNAs (dsDNA) were paired from the complementary single-stranded DNA (ssDNA) by denaturing at 95° C. for 5 min and subsequently cooling to 25° C. in a buffer containing 10 mM Tris-HCl (pH 7.4), 75 mM KCl and 0.5 mM EDTA. 20 nM 5′-FAM-labeled aptamer DNA (Table 1) was dissolved in a first buffer, denatured at 95° C. for 5 min and subsequently cooled to 25° C. at a rate of 0.1° C./s; the first buffer contained 10 mM Tris-HCl (pH 7.4), 75 mM KCl, 0.5 mM EDTA, and 0.2 mg/ml BSA. Then each aptamer DNA and the specified concentration of DNA polymerase fused to G-quadruplex binding peptide were added into a second buffer, to bind at 4° C. for 1 hour, to form a DNA-protein complex; the second buffer contained 20 mM Tris-HCl (pH 8.8), 10 mM (NH₄)₂SO₄, 50 mM KCl, 2-8 mM MgSO₄, and 0.1% Tween-20.
The binding of aptamer to DNA polymerase was detected by electrophoretic mobility shift assay. Specifically, DNA-protein complex was electrophoresed on 8% or 12% non-denatured polyacrylamide gel containing 75 mM KCl at 4° C. for 2 h in 1×TBE buffer containing 75 mM KCl. The DNA-protein complex was photographed by the ChemiDoc MP imaging system (Bio-Rad) and digitized by the Image Quant 5.2 software.

B1: PDGFRB-Fd-G4 (structured_DNA)
DNA 1: CCTGAAGCAGACAGCTAGTGAATTCGGGAGGGCGGCGGGGCAGGGTACTTGCGTATAACTGTTCCATAGT
DNA 2: ACTATGGAACAGTTATACGCAAGTATTTTTTTTTTTTTTTTTTTTTGAATTCACTAGCTGTCTGCTTCAGG
- binding result: binds

B2: T4B1-Fd-G4 (structured_DNA)
DNA 1: CCTGAAGCAGACAGCTAGTGAATTCGTTTTGGTGGGTGGGTGGGTACTTGCGTATAACTGTTCCATAGT
DNA 2: ACTATGGAACAGTTATACGCAAGTATTTTTTTTTTTTTTTTTTTTTGAATTCACTAGCTGTCTGCTTCAGG
- binding result: binds
